Key:
[1] = biological target: human FSH (preparation not named) (human, UniProt P01215 25-116; P01225 19-129); assay: cell-based or functional assay
ovine FSH [2] = biological target: T1, ovine FSH (ovine, UniProt P01218 25-120; P01227 20-129); assay: cell-based or functional assay
porcine FSH = porcine FSH (porcine, UniProt P01219 25-120; P01228 21-129); assay: cell-based or functional assay
[3] = biological target: human FSH Gonal-F (recombinant human FSH, Merck Serono) (human, UniProt P01215 25-116; P01225 19-129); assay: cell-based or functional assay
Sequence of human FSH Gonal-F (recombinant human FSH, Merck Serono) (P01215 25-116, chain 1 of 2): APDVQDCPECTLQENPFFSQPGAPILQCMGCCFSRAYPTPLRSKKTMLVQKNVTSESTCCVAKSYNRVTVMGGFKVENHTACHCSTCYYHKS
Sequence of human FSH Gonal-F (recombinant human FSH, Merck Serono) (P01225 19-129, chain 2 of 2): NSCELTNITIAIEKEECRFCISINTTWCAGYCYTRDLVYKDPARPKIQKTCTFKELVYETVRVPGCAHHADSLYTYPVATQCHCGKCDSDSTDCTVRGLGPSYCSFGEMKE

porcine LH [4] = biological target: T2, porcine LH (porcine, UniProt P01219 25-120; P01232 21-141); assay: ELISA; hormone adsorbed on the plate (10 µg/ml), scFv at 200 µg/ml, anti-His Tag HRP
Description: (§1) Each hormone evaluated was prepared at the concentration of 10 μg/ml in a 0.1 M sodium carbonate buffer, pH 9.6, and distributed in a proportion of 100 μl per well on an ELISA plate. The adsorption time was 18 hours at +4° C. After five washes, the wells were treated with 100 µl of PBS supplemented with 0.1% Tween and 1% BSA for 45 minutes at 37° C., then each antibody or scFv was distributed in a proportion of 100 μl/well and incubated for one hour at 37° C. On each hormone evaluated, the antibody and the scFv were distributed at various concentrations according to a range of 10 to 250 μg/ml for the antibodies and of 10 to 150 or 200 μg/ml for the scFv.
(§2) After five washes, a secondary antibody coupled to peroxidase (HRP) was distributed in a proportion of 100 µl/well and incubated for one hour at 37° C. Depending on the isotype of the monoclonal antibody studied, the secondary antibody was an anti-IgG1 HRP (Ref. 115-035-205, Jackson ImmunoResearch Laboratories Inc), an anti-IgG2a HRP (Ref. 115-035-206, Jackson Laboratories) or an anti-IgM HRP (Ref. 115-035-075, Jackson Laboratories). For the scFvs, an anti-His Tag HRP (Ref. R93125 Life Technologies, France) was used. […] After the reaction had been stopped with 1 M H₂SO₄ (50 μl/well), the strength of the colored reaction (optical density) was measured using a spectrophotometer for ELISA plates.

bovine LH [5] = biological target: T3, bovine LH (bovine, UniProt P01217 25-120; P04651 21-141); assay: as above
Description: as §1, §2

[6] = biological target: T4, equine chorionic gonadotropin (equine, UniProt P01220 25-120; P08751 21-169); assay: as above
T4 construct: also called eCG
T4 sequence (P01220 25-120, chain 1 of 2): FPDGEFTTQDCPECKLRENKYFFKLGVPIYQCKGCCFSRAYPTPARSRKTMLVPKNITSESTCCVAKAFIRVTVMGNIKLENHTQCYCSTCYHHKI
T4 sequence (P08751 21-169, chain 2 of 2): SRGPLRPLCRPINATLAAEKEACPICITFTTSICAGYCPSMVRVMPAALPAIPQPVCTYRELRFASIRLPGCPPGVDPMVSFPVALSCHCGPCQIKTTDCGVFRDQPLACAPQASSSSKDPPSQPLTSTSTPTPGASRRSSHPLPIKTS
Description: as §1, §2

[7] = biological target: T5, hCG Chorulon (human chorionic gonadotropin extracted from urine of pregnant women, MSD) (human, UniProt P01215 25-116; P0DN86 21-165); assay: as above
T5 construct: Commercial urinary hCG, veterinary preparation
T5 sequence (P01215 25-116, chain 1 of 2, other chains not shown): as the sequence (P01215 25-116, chain 1 of 2) above
Description: as §1, §2

[8] = biological target: T6, hCG Endo 5000 (purified human chorionic gonadotropin, Schering-Plough) (human, UniProt P01215 25-116; P0DN86 21-165); assay: as above
T6 construct: Commercial purified hCG
T6 sequence (P01215 25-116, chain 1 of 2, other chains not shown): as the sequence (P01215 25-116, chain 1 of 2) above
Description: as §1, §2

ovine LH [9] = biological target: T7, ovine LH (ovine, UniProt P01218 25-120; P01231 21-141); assay: as above
Description: as §1, §2

porcine LH [10] = biological target: T2, porcine LH; assay: ELISA saturation binding on adsorbed hormone; Kd estimated with GraphPad Prism 'One site-Specific binding'
Description: as §1, §2
(§3) An estimation of the dissociation constant Kd of the scFv, with respect to the various FSH, LH and CG studied, was calculated on GraphPad Prism (GraphPad Software Inc., San Diego, Calif., USA, version 5) using the “One site—Specific binding” function in a saturation binding model (“saturation binding experiment model”, GraphPad PRISM software).

bovine LH [11] = biological target: T3, bovine LH; assay: as above
Description: as §1, §2, §3

[12] = biological target: T4, equine chorionic gonadotropin; assay: as above
Description: as §1, §2, §3

[13] = biological target: T5, hCG Chorulon (human chorionic …); assay: as above
Description: as §1, §2, §3

[14] = biological target: T6, hCG Endo 5000 (purified human chorionic …); assay: as above
Description: as §1, §2, §3

ovine FSH [15] = biological target: T1, ovine FSH; assay: as above
Description: as §1, §2, §3

[16] = biological target: T8, hMG Menopur (human menopausal gonadotropin, Ferring Pharmaceuticals) (human); assay: as above
T8 construct: numbers for it cannot be laid to one hormone
Description: as §1, §2, §3

ovine LH [17] = biological target: T7, ovine LH; assay: as above
Description: as §1, §2, §3

Sequence of human FSH (preparation not named) (P01215 25-116, chain 1 of 2): as above
Sequence of human FSH (preparation not named) (P01225 19-129, chain 2 of 2): as the sequence (P01225 19-129, chain 2 of 2) above

B1: CF12 monoclonal antibody (antibody, IgM, V domains shown)
VH: QGQMQQSGAELVKPGASVKLSCKTSGFTFSSSYISWLKQKPGQSLEWIAWIYAGTGGTSYNQKFTGKAQLTVDTSSSTAYMQFSSLTTEDSAIYYCARHGSYFDYWGQGTTLTVSS
VL: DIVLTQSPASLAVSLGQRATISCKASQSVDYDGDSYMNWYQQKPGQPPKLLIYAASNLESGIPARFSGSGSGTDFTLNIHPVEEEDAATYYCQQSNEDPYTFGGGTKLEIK
cAMP secretion of bovine granulosa cells, hFSH 3-25 ng/ml pre-complexed with 0.1 µg/ml CF12 against hFSH alone [1]: 2.5 fold | increase in the bioactivity of the hormone, LogEC50, GloSensor HEK 293 hFSHR cells (ovine FSH [2]): 1.06 LogEC50 | increase in the bioactivity of the hormone, LogEC50, GloSensor HEK 293 hFSHR cells (porcine FSH): 0.717 LogEC50 | increase in the bioactivity of the hormone, LogEC50 units, GloSensor HEK 293 hFSHR cells [3]: 0.7 LogEC50 units

B2: CF12 scFv (scFv)
scFv: QVQLQQSGGAELVKPGASVKLSCKTSGFTFSSSYISWLKQKPGQSLEWIAWIYAGTGGTSYNQKFTGKAQLTVDTSSSTAYMQFSSLTTEDSAIYYCARHGSYFDYWGQGTTLTVSSGGGGSGGGGSGGGGSDIQMTQTPASLAVSLGQRATISCKASQSVDYDGDSYMNWYQQKPGQPPKLLIYAASNLESGIPARFSGSGSGTDFTLNIHPVEEEDAATYYCQQSNEDPYTFGGGTKLEIKHHHHHH
notes: Made in E. coli periplasm; also called scFv derived from the CF12 antibody
optical density (porcine LH [4]): 2.2 optical density units | optical density (bovine LH [5]): 2.2 optical density units | optical density [6]: 0.6 optical density units | optical density [7]: 0.35 optical density units | optical density [8]: 0.38 optical density units | optical density (ovine LH [9]): 2 optical density units | Kd (porcine LH [10]): 4.73 µM | Kd (bovine LH [11]): 5.03 µM | Kd [12]: 6.12 µM | Kd [13]: 5.07 µM | Kd [14]: 6.24 µM | Kd (ovine FSH [15]): 3.78 µM | Kd [16]: 14 µM | Kd (ovine LH [17]): 5.81 µM

Reference: US20170190773A1 (IGYXOS, published 2017)
